According to PMC5262380, “Structural insights into the mechanism of the DEAH-box RNA helicase Prp43”:

Tests used:
ctPrp43 = ctPrp43 (Chaetomium thermophilum? (printed C. …, UniProt G0RY84 1-764)); assay: fluorescence anisotropy; AMPPNP (100-fold excess), 3 mM MgCl2; Fluorescence anisotropy: 25 mM Tris pH 7.5, 150 mM KCl, 3 mM MgCl2, 25 C, 0.1 uM RNA, 0.01-50 uM protein, 100-fold excess AMPPNP; conditions: protein: recombinant; tags: GST-tag removed; label: 5' 6-carboxyfluorescein; single strand
[1] = target: ctPrp43-HT (Hook-Turn mutant) (Chaetomium thermophilum? (printed C. …, UniProt G0RY84 1-764, R180G;F181G)); assay: as above; conditions: protein: recombinant; tags: GST-tag removed; label: 5' 6-carboxyfluorescein; single strand
Chain of ctPrp43-HT (Hook-Turn mutant) (Chaetomium thermophilum? (G0RY84 entry or part of it R180G;F181G | mutant): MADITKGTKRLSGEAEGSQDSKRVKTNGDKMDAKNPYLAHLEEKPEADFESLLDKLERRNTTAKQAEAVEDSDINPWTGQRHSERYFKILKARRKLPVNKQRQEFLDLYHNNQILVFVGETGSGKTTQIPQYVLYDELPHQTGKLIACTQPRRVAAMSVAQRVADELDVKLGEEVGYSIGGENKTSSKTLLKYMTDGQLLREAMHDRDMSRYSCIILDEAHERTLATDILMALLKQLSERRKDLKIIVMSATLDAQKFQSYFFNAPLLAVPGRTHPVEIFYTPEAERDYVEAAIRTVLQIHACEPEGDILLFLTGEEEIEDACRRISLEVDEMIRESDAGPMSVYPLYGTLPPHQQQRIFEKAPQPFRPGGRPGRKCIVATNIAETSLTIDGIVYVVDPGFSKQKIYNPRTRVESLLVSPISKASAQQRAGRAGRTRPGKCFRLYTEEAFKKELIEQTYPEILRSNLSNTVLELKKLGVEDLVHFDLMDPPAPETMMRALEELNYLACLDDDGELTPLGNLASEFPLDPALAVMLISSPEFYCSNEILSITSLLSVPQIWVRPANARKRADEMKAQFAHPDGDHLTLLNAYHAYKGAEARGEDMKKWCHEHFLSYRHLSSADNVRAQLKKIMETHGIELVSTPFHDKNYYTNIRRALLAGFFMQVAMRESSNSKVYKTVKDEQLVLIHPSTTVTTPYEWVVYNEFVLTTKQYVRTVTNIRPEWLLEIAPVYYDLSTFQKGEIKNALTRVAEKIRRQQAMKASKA

Chain of ctPrp43 (Chaetomium thermophilum? (G0RY84 entry or part of it): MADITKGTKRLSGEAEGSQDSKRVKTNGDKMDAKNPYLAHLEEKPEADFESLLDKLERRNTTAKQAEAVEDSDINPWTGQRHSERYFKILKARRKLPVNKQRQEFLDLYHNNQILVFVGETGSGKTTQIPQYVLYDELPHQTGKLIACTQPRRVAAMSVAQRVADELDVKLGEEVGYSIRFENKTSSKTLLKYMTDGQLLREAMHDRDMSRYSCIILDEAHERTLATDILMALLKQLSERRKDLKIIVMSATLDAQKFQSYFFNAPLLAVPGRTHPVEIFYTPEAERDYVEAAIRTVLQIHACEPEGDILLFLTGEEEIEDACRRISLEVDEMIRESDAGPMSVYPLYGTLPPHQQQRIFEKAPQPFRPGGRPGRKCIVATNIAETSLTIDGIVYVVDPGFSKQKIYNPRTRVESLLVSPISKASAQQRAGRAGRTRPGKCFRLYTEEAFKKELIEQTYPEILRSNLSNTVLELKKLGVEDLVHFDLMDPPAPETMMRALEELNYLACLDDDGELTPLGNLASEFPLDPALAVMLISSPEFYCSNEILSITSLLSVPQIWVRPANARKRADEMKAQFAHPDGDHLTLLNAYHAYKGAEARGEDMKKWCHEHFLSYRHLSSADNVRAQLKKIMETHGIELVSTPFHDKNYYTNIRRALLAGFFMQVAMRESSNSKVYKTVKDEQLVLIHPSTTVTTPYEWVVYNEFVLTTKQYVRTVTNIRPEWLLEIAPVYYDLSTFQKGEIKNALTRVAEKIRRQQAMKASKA

With UUUUUUUUUUUUUUUU (ssRNA) [5'-6FAM-U16-RNA] the Kd (ctPrp43) was 4980 ± 570 nM and the Kd [1] was 840 ± 50 nM.
